# From patent US20260209291A1 (KAMINO, published 2026)
# T1: GDF11 (Growth Differentiation Factor 11) (Homo sapiens (Human), UniProt O95390 299-407)
# T1 sequence: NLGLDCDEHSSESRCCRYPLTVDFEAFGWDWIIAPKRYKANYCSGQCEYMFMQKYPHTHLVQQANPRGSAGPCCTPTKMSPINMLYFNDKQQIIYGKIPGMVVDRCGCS
# T2: myostatin (Homo sapiens (Human), UniProt O14793 267-375)
# T2 sequence: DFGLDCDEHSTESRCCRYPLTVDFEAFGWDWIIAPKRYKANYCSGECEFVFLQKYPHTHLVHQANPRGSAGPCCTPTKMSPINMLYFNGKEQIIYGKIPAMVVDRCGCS
# T3: activin A (human, UniProt P08476 311-426)
# T3 sequence: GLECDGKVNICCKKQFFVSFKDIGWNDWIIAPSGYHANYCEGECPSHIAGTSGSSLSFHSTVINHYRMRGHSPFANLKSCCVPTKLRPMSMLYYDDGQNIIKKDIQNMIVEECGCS
# B1: anti-vimentin-nanobody-FSD1 (VHH)
# VHH: QVQLVESGGGLVQSGGSLTLTCAASGFTFSAASMRWVRQVPGKGLEWVATIDGTGANSYYSESAKGRFTISRDNARNTLYLQMNNLKPDDTAVYYCANFGRNYWGKGTQVTVSS
# modifications: ATTO 488 fluorescent label, sites not stated
# notes: also called anti-vimentin-nb-FSD1; type 1 design compound
# B2: FST315dHBS-mFc (Fc fusion)
# chain: GNCWLRQAKNGRCQVLYKTELSKEECCSTGRLSTSWTEEDVNDNTLFKWMIFNGGAPNCIPCKETCENVDCGPGSTCVVDQTNNPRCVCAPDCSNITWKGPVCGLDGKTYRNECALLKARCKEQPELEVQYQGRCKKTCRDVFCPGSSTCVVDQTNNAYCVTCNRICPEPASSEQYLCGNDGVTYSSACHLRKATCLLGRSIGLAYEGKCIKAKSCEDIQCTGGKKCLWDFKVGRGRCSLCDELCPDSKSDEPVCASDNATYASECAMKEAACSSGVLLEVKHSGSCNSISEDTEEEEEDEDQDYSFPISSILEWPRGPTIKPCPPCKCPAPNLLGGPSVFIFPPKIKDVLMISLSPIVTCVVVDVSEDDPDVQISWFVNNVEVHTAQTQTHREDYNSTLRVVSALPIQHQDWMSGKEFKCKVNNKDLPAPIERTISKPKGSVRAPQVYVLPPPEEEMTKKQVTLTCMVTDFMPEDIYVEWTNNGKTELNYKNTEPVLDSDGSYFMYSKLRVEKKNWVERNSYSCSVVHEGLHNHHTTKSFSRTPGK
# Key:
# [1] = molecular target: T4, vimentin (endogenous, in mouse gastrocnemius muscle connective tissue cells) (mouse, UniProt P20152 2-466); assay: confocal imaging of sections of mouse gastrocnemius muscle 18 hours after intramuscular injection of 8 µg ATTO 488 labelled compound; the filing reads the filaments as vimentin; no vimentin co-stain on the sheet
# T4 construct: whole, on cells; Intracellular filament protein, inside the cells and not on their surface
# T4 sequence (P20152 2-466): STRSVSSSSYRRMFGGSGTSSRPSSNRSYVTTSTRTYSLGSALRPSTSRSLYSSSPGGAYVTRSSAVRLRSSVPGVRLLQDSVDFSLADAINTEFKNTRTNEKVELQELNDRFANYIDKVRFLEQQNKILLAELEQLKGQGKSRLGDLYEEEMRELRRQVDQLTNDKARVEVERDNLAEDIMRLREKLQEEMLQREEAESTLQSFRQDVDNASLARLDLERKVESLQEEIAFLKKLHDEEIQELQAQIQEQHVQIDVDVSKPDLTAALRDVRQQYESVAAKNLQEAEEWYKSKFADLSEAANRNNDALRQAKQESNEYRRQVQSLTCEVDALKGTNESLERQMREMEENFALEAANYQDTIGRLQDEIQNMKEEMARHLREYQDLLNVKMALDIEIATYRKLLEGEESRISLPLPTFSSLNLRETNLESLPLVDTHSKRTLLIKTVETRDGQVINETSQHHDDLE
# Procedure: (§1) After labeling, compound concentration was determined using the Pierce Coomassie (Bradford) Protein Assay Kit (Thermo Scientific, #23200).
# Two 12-week-old female BALB/c mice were allocated for injection with either anti-vimentin-nanobody-FSD1 (type 1 compound, n=1) or anti-vimentin-nanobody (n=1). During anaesthesia, the right hind limb was shaved to expose the calf muscles. A single dose of 8 μg, fluorescently labeled compound was administered intramuscularly in a volume of 5 μl in the gastrocnemius muscle. Mice received a subcutaneous injection of pain relief (Carprofen 5 mg/kg) to counter any pain resulting from tension in the muscle. Eighteen hours after injection, the gastrocnemius muscle was dissected and immersion-fixed in 4% formaldehyde. The gastrocnemius muscle was ethanol dehydrated, embedded in paraffin, and sectioned at 4 μm thickness using a microtome. Sections were left unstained and mounted with DAPI containing mountant (#P36962, ProLong Diamond Antifade Mountant with DAPI) on microscope slides. […] DAPI was excited using a 405 nm diode laser at 1.00% and detected at wavelengths […]. For each sample, a Z-stack was recorded with an interval of 0.190 μm. […]
# [2] = molecular target: T5, vimentin (endogenous, in HEK293 cells) (human (HEK293 cells), UniProt P08670 2-466); assay: confocal imaging of adherent HEK293 cells after 18 hours with 1 µM ATTO 488 labelled compound; the filing reads the filaments as vimentin; no vimentin co-stain on the sheet
# T5 construct: whole, on cells; Intracellular filament protein, inside the cells and not on their surface
# T5 sequence (P08670 2-466): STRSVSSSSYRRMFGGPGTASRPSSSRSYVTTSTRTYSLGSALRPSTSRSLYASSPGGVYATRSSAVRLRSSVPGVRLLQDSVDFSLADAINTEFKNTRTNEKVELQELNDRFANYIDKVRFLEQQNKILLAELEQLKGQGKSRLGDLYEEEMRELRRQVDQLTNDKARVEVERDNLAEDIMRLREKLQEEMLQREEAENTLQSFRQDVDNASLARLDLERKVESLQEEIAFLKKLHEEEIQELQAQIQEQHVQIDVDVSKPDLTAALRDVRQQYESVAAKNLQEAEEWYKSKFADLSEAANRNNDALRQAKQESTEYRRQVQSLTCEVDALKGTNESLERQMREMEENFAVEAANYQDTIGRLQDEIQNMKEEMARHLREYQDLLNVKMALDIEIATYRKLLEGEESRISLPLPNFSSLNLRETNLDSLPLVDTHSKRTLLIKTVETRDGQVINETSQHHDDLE
# Procedure: as §1
# Briefly, HEK293 cells were seeded on a cover slip glass (Thorlabs, #CG15NH) treated with poly-D-lysine (ThermoFisher, #A3890401) to promote adhesion. Cells were seeded in DMEM (ThermoFisher, #11995073) supplemented with 10% fetal bovine serum (FBS). After 24 hours, cells were washed with PBS and compounds (1 μM) were added in 100% DMEM without FBS. A control sample using 100% DMEM without added compound was also included. After 3 hours and 18 hours of incubation, cells were washed 3 times with PBS. […] Cells were then washed 3 times with PBS and fixed using 4% formalin for 30 minutes. Cover slips were mounted using ProLong Glass Antifade Mountant (ThermoFisher, #P36980). Confocal imaging was conducted using a Zeiss LSM800 laser scanning confocal microscope (Carl Zeiss Microscopy GmbH, Oberkochen, Germany) equipped with 2 GaAsP and one Airyscan detector and Zen Blue Edition software (Carl Zeiss Microscopy GmbH, version 2.5). Confocal images were taken with the PlanApo x63 Oil NA 1.4 objective. […] Lysotracker Red DND-99 was excited using a 561 nm diode laser at 2.60% (both 3-hour and 18-hour samples) and detected at wavelengths 575-700 nm. For each sample, a Z-stack was recorded with an interval of 0.270 μm (3-hour samples) or 0.170 μm (18-hour samples). […]
# [3] = molecular target: VEGF (Vascular Endothelial Growth Factor) (UniProt P15692-4 27-191); assay: SPR (Biacore 3000, 25 °C): compound captured to about 1,000 RU on a CM5 chip with the mouse antibody capture kit, VEGF injected for 120 s, 300 s dissociation; negative control
# VEGF (Vascular Endothelial Growth Factor), sequence (P15692 other isoform, or with tags, fused parts or gaps limits assumed): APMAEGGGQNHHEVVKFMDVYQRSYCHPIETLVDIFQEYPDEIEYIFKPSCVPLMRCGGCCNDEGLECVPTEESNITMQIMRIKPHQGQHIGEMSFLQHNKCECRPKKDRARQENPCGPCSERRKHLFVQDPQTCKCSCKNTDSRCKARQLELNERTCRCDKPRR
# Procedure: (§2) Surface plasmon resonance (SPR) experiments were carried out on a Biacore 3000 (Cytiva). A CM5 chip for capture of the compounds was prepared according to the instructions of the mouse antibody capture kit (Cytiva, #BR100838). VGFR(½)-mFc-FSD1, TNFR2-mFc-FSD1, VGFR(½)/FST291-mFc, TNFR2/FST291-mFc, VGFR(½)-hFc (Aflibercept), TNFR2-hFc (Etanercept), and FST315dHBS-mFc (SEQ ID NO: 30, SEQ ID NO: 31) were captured to approximately 1,000 RU (Resonance Units). TNFα (R&D Systems, #210-TA-005,) or VEGF (R&D Systems, #293-VE-010) were then injected for 120 s followed by a 300 s dissociation phase. At the end of each binding cycle, non-covalently attached molecules were removed from both surfaces by a 180 s regeneration with 10 mM glycine, pH 1.7. All proteins were diluted in running buffer ([…], pH 7.5, […], 2 mM CaCl₂) and 0.05% Tween 20). A flow rate of 30 μl/min was used in all steps of the experiments. Binding analysis was performed at 25° C., and data were collected at a rate of 1 Hz. Using the BIAevaluation 4.1.1 software (Cytiva), recorded signals were referenced; the signal from the in-line reference flow cell was subtracted as was the signal from a blank run (0 nM analyte).
# [4] = molecular target: T1, GDF11 (Growth Differentiation Factor 11); assay: cell-based or functional assay
# [5] = molecular target: T2, myostatin; assay: cell-based or functional assay
# [6] = molecular target: TNFα (Tumor Necrosis Factor alpha) (UniProt P01375 77-233); assay: SPR (Biacore 3000, 25 °C): compound captured to about 1,000 RU on a CM5 chip with the mouse antibody capture kit, TNFα injected for 120 s, 300 s dissociation; negative control
# TNFα (Tumor Necrosis Factor alpha), sequence (P01375 77-233 limits assumed): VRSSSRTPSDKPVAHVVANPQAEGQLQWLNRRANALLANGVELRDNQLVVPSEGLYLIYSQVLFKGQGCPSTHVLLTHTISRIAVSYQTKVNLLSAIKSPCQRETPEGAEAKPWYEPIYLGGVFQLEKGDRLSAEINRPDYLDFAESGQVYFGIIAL
# Procedure: as §2
# [7] = molecular target: T3, activin A; assay: cell-based or functional assay
binder,measurement,setting,value
B1,binding result,[1],binds
same,binding result,[2],binds
B2,binding result,[3],no binding (tested: 25 nM VEGF)
same,"IC50, neutralisation of 1 ng/mL GDF11 (pSmad2/3 luciferase reporter, HEK293 cells)",[4],205 pM
same,"IC50, neutralisation of 1 ng/mL myostatin (pSmad2/3 luciferase reporter, HEK293 cells)",[5],225 pM
same,binding result,[6],no binding (tested: 50 nM TNFα)
same,"IC50, neutralisation of 1 ng/mL activin A (pSmad2/3 luciferase reporter, HEK293 cells)",[7],47 pM
